Assay results reported in article PMC9262799, “The first step into phenolic metabolism in the hornwort Anthoceros agrestis: molecular and biochemical characterization of two phenylalanine ammonia-lyase isoforms” (Planta, 2022).

What was measured:
Assay type in all cases: biochemical, Anthoceros agrestis
N[C@@H](Cc1ccccc1)C(=O)O [1] = system: T1, N[C@@H](Cc1ccccc1)C(=O)O; assay: HPLC of t-cinnamic acid formed, Michaelis-Menten fit; conditions: boric acid/sodium tetraborate buffer pH 8.8, 36 °C, 10 min, 1-500 µM Phe
T1 construct: full-length, 752 residues (81,895 Da), N-terminal 6xHis-tag kept (84,058 Da with tag), pET15b, E. coli SoluBL21, Ni-NTA; cDNA from suspension culture; PALs mostly homotetramers, oligomer not measured here
Text: HPLC of t-cinnamic acid formed, Michaelis-Menten fit on AaPAL1

[2] = system: T2, N[C@@H](Cc1ccc(O)cc1)C(=O)O; assay: HPLC of 4-coumaric acid formed, Michaelis-Menten fit; conditions: boric acid/sodium tetraborate buffer pH 8.8, 36 °C, 10 min, 0-9.6 mM Tyr
T2 construct: full-length, 752 residues (81,895 Da), N-terminal 6xHis-tag kept (84,058 Da with tag), pET15b, E. coli SoluBL21, Ni-NTA; cDNA from suspension culture; PALs mostly homotetramers, oligomer not measured here
Text: HPLC of 4-coumaric acid formed, Michaelis-Menten fit on AaPAL1

N[C@@H](Cc1ccccc1)C(=O)O [3] = system: T3, N[C@@H](Cc1ccccc1)C(=O)O; assay: HPLC of t-cinnamic acid formed, Michaelis-Menten fit; conditions: boric acid/sodium tetraborate buffer pH 8.8, 36 °C, 4 min, 1-500 µM Phe
T3 construct: full-length, 753 residues (81,704 Da), N-terminal 6xHis-tag kept (83,867 Da with tag), pET15b, E. coli SoluBL21, Ni-NTA; cDNA from suspension culture; PALs mostly homotetramers, oligomer not measured here
Text: HPLC of t-cinnamic acid formed, Michaelis-Menten fit on AaPAL2

[4] = system: T4, N[C@@H](Cc1ccc(O)cc1)C(=O)O; assay: HPLC of 4-coumaric acid formed, Michaelis-Menten fit; conditions: boric acid/sodium tetraborate buffer pH 8.8, 36 °C, 15 min, 0-9.6 mM Tyr
T4 construct: full-length, 753 residues (81,704 Da), N-terminal 6xHis-tag kept (83,867 Da with tag), pET15b, E. coli SoluBL21, Ni-NTA; cDNA from suspension culture; PALs mostly homotetramers, oligomer not measured here
Text: HPLC of 4-coumaric acid formed, Michaelis-Menten fit on AaPAL2

AaPAL2 (Anthoceros agrestis), sequence (chain, as listed by the source): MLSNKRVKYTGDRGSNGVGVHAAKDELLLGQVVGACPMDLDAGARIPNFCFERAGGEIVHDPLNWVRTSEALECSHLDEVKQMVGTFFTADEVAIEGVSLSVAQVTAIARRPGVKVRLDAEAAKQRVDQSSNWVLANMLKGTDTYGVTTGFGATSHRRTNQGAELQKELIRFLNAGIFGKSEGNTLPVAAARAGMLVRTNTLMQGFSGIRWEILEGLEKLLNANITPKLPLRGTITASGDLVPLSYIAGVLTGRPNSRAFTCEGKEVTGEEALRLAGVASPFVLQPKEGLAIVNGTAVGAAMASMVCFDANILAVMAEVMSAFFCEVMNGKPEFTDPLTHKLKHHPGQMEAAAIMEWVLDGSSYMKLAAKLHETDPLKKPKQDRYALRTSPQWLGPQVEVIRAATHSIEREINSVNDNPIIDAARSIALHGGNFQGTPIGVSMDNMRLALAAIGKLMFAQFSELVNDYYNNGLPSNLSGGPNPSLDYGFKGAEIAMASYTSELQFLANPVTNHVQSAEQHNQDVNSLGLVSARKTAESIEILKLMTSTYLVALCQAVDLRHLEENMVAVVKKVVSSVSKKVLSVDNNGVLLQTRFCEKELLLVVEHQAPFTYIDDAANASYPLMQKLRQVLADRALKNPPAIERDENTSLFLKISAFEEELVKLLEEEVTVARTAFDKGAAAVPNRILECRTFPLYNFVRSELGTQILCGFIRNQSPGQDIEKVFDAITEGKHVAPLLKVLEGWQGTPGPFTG
AaPAL1 (Anthoceros agrestis), sequence (chain, as listed by the source): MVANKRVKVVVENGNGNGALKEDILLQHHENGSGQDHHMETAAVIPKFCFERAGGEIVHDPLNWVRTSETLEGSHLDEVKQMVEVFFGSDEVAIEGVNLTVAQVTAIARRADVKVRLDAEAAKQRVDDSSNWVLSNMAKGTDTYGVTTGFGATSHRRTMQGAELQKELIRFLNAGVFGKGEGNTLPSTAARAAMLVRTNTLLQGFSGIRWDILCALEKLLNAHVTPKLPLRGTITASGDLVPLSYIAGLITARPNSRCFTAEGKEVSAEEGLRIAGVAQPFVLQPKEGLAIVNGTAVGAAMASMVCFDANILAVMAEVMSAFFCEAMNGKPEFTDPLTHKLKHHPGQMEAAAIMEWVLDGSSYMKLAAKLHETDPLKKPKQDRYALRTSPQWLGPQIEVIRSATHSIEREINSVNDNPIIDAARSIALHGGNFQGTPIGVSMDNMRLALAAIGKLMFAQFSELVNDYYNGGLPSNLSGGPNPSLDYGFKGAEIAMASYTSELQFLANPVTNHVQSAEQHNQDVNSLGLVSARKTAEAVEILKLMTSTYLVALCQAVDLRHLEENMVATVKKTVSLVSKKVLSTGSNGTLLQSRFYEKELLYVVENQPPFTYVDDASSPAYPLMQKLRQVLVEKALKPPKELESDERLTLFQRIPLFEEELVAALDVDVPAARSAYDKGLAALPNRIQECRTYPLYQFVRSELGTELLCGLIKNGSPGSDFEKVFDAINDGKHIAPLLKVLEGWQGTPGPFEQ

Substance	Km (N[C@@H](Cc1ccccc1)C(=O)O [1]) [µM]	Vmax (N[C@@H](Cc1ccccc1)C(=O)O [1]) [µmol/min/mg]	kcat (N[C@@H](Cc1ccccc1)C(=O)O [1]) [s⁻¹]	kcat/Km (N[C@@H](Cc1ccccc1)C(=O)O [1]) [M⁻¹ s⁻¹]	Km [2] [µM]	Vmax [2] [µmol/min/mg]	kcat [2] [s⁻¹]	kcat/Km [2] [M⁻¹ s⁻¹]	Km (N[C@@H](Cc1ccccc1)C(=O)O [3]) [µM]	Vmax (N[C@@H](Cc1ccccc1)C(=O)O [3]) [µmol/min/mg]	kcat (N[C@@H](Cc1ccccc1)C(=O)O [3]) [s⁻¹]	kcat/Km (N[C@@H](Cc1ccccc1)C(=O)O [3]) [M⁻¹ s⁻¹]	Km [4] [µM]	Vmax [4] [µmol/min/mg]	kcat [4] [s⁻¹]	kcat/Km [4] [M⁻¹ s⁻¹]
AaPAL1 (Anthoceros agrestis)	39 ± 15	0.252	0.353	9050	3308 ± 987	0.058	0.081	24.5								
AaPAL2 (Anthoceros agrestis)									18 ± 4	0.206	0.288	16000	3526 ± 617	0.0296	0.041	11.6
